± gives the uncertainty stated by the source.
B1: Ankyrin-1, residues 1405 to 1484; numbered along this chain, P16157 (parent)
chain: MKMAVISEHLGLSWAELARELQFSVEDINRIRVENPNSLLEQSVALLNLWVIREGQNANMENLYTALQSIDRGEIVNMLE

Variants of: B1
Test: abundance fitness (aPCA) (normalised: wild type 0, dead -1); higher = more abundant; growth selection in yeast, the domain comes from the species named
Details: Homo sapiens

Variant	abundance fitness
MKMAVISEHLGLSWAELARELQFSVEDINRIRVENPNSLLEQSVALLNLWMIREGQNANMENLYTALQSIDRGEIVNMLE [V51M]	0.026 ± 0.11
MKMAVISEHLGLSWAELARELQFSVEDINRIRVENPNSLLEQSVALLNLWNIREGQNANMENLYTALQSIDRGEIVNMLE [V51N]	-0.159 ± 0.12
MKMAVISEHLGLSWAELARELQFSVEDINRIRVENPNSLLEQSVALLNLWQIREGQNANMENLYTALQSIDRGEIVNMLE [V51Q]	0.176 ± 0.074
MKMAVISEHLGLSWAELARELQFSVEDINRIRVENPNSLLEQSVALLNLWRIREGQNANMENLYTALQSIDRGEIVNMLE [V51R]	0.065 ± 0.06
MKMAVISEHLGLSWAELARELQFSVEDINRIRVENPNSLLEQSVALLNLWSIREGQNANMENLYTALQSIDRGEIVNMLE [V51S]	0.128 ± 0.051
MKMAVISEHLGLSWAELARELQFSVEDINRIRVENPNSLLEQSVALLNLWTIREGQNANMENLYTALQSIDRGEIVNMLE [V51T]	0.068 ± 0.07
MKMAVISEHLGLSWAELARELQFSVEDINRIRVENPNSLLEQSVALLNLWWIREGQNANMENLYTALQSIDRGEIVNMLE [V51W]	0.085 ± 0.087
MKMAVISEHLGLSWAELARELQFSVEDINRIRVENPNSLLEQSVALLNLWYIREGQNANMENLYTALQSIDRGEIVNMLE [V51Y]	-0.023 ± 0.2
MKMAVISEHLGLSWAELARELQFSVEDINRIRVENPNSLLEQSVALLNLWVGREGQNANMENLYTALQSIDRGEIVNMLE [I52G]	-0.351 ± 0.35
MKMAVISEHLGLSWAELARELQFSVEDINRIRVENPNSLLEQSVALLNLWVIAEGQNANMENLYTALQSIDRGEIVNMLE [R53A]	-0.555 ± 0.078
MKMAVISEHLGLSWAELARELQFSVEDINRIRVENPNSLLEQSVALLNLWVICEGQNANMENLYTALQSIDRGEIVNMLE [R53C]	-0.797 ± 0.2
MKMAVISEHLGLSWAELARELQFSVEDINRIRVENPNSLLEQSVALLNLWVIDEGQNANMENLYTALQSIDRGEIVNMLE [R53D]	-0.613 ± 0.15
MKMAVISEHLGLSWAELARELQFSVEDINRIRVENPNSLLEQSVALLNLWVIEEGQNANMENLYTALQSIDRGEIVNMLE [R53E]	-0.512 ± 0.1
MKMAVISEHLGLSWAELARELQFSVEDINRIRVENPNSLLEQSVALLNLWVIFEGQNANMENLYTALQSIDRGEIVNMLE [R53F]	-0.927 ± 0.22
MKMAVISEHLGLSWAELARELQFSVEDINRIRVENPNSLLEQSVALLNLWVIGEGQNANMENLYTALQSIDRGEIVNMLE [R53G]	-0.507 ± 0.058
MKMAVISEHLGLSWAELARELQFSVEDINRIRVENPNSLLEQSVALLNLWVIHEGQNANMENLYTALQSIDRGEIVNMLE [R53H]	-0.758 ± 0.23
MKMAVISEHLGLSWAELARELQFSVEDINRIRVENPNSLLEQSVALLNLWVIKEGQNANMENLYTALQSIDRGEIVNMLE [R53K]	-0.17 ± 0.08
MKMAVISEHLGLSWAELARELQFSVEDINRIRVENPNSLLEQSVALLNLWVINEGQNANMENLYTALQSIDRGEIVNMLE [R53N]	-0.31 ± 0.26

Variant	abundance fitness
MKMAVISEHLGLSWAELARELQFSVEDINRIRVENPNSLLEQSVALLNLWVIPEGQNANMENLYTALQSIDRGEIVNMLE [R53P]	-0.983 ± 0.21
MKMAVISEHLGLSWAELARELQFSVEDINRIRVENPNSLLEQSVALLNLWVIQEGQNANMENLYTALQSIDRGEIVNMLE [R53Q]	-0.483 ± 0.11
MKMAVISEHLGLSWAELARELQFSVEDINRIRVENPNSLLEQSVALLNLWVISEGQNANMENLYTALQSIDRGEIVNMLE [R53S]	-0.591 ± 0.1
MKMAVISEHLGLSWAELARELQFSVEDINRIRVENPNSLLEQSVALLNLWVITEGQNANMENLYTALQSIDRGEIVNMLE [R53T]	-0.682 ± 0.18
MKMAVISEHLGLSWAELARELQFSVEDINRIRVENPNSLLEQSVALLNLWVIVEGQNANMENLYTALQSIDRGEIVNMLE [R53V]	-0.847 ± 0.11
MKMAVISEHLGLSWAELARELQFSVEDINRIRVENPNSLLEQSVALLNLWVIYEGQNANMENLYTALQSIDRGEIVNMLE [R53Y]	-0.842 ± 0.35
MKMAVISEHLGLSWAELARELQFSVEDINRIRVENPNSLLEQSVALLNLWVIRAGQNANMENLYTALQSIDRGEIVNMLE [E54A]	-0.496 ± 0.077
MKMAVISEHLGLSWAELARELQFSVEDINRIRVENPNSLLEQSVALLNLWVIRCGQNANMENLYTALQSIDRGEIVNMLE [E54C]	-0.198 ± 0.089
MKMAVISEHLGLSWAELARELQFSVEDINRIRVENPNSLLEQSVALLNLWVIRDGQNANMENLYTALQSIDRGEIVNMLE [E54D]	-0.3 ± 0.1
MKMAVISEHLGLSWAELARELQFSVEDINRIRVENPNSLLEQSVALLNLWVIRFGQNANMENLYTALQSIDRGEIVNMLE [E54F]	-0.606 ± 0.15
MKMAVISEHLGLSWAELARELQFSVEDINRIRVENPNSLLEQSVALLNLWVIRGGQNANMENLYTALQSIDRGEIVNMLE [E54G]	-0.115 ± 0.049
MKMAVISEHLGLSWAELARELQFSVEDINRIRVENPNSLLEQSVALLNLWVIRHGQNANMENLYTALQSIDRGEIVNMLE [E54H]	-0.294 ± 0.17
MKMAVISEHLGLSWAELARELQFSVEDINRIRVENPNSLLEQSVALLNLWVIRIGQNANMENLYTALQSIDRGEIVNMLE [E54I]	-0.931 ± 0.26
MKMAVISEHLGLSWAELARELQFSVEDINRIRVENPNSLLEQSVALLNLWVIRKGQNANMENLYTALQSIDRGEIVNMLE [E54K]	-0.29 ± 0.12
MKMAVISEHLGLSWAELARELQFSVEDINRIRVENPNSLLEQSVALLNLWVIRLGQNANMENLYTALQSIDRGEIVNMLE [E54L]	-0.567 ± 0.076
MKMAVISEHLGLSWAELARELQFSVEDINRIRVENPNSLLEQSVALLNLWVIRMGQNANMENLYTALQSIDRGEIVNMLE [E54M]	-0.294 ± 0.058
MKMAVISEHLGLSWAELARELQFSVEDINRIRVENPNSLLEQSVALLNLWVIRNGQNANMENLYTALQSIDRGEIVNMLE [E54N]	-0.043 ± 0.091
